Laboratory results published in patent publication US20130210709A1 (ANCHOR THERAPEUTICS, published 2013).
Ends that are not written are not given here. * marks the point of attachment. Palmitoyl = CCCCCCCCCCCCCCCC(=O)*

B1: Compound No. 38 (Pal-MGYQKKLRSMTDKYRL-amide) (peptide)
peptide: Palmitoyl-MGYQKKLRSMTDKYRL-NH2
SMILES: CCCCCCCCCCCCCCCC(=O)N[C@@H](CCSC)C(=O)NCC(=O)N[C@@H](Cc1ccc(O)cc1)C(=O)N[C@@H](CCC(N)=O)C(=O)N[C@@H](CCCCN)C(=O)N[C@@H](CCCCN)C(=O)N[C@@H](CC(C)C)C(=O)N[C@@H](CCCNC(=N)N)C(=O)N[C@@H](CO)C(=O)N[C@@H](CCSC)C(=O)N[C@H](C(=O)N[C@@H](CC(=O)O)C(=O)N[C@@H](CCCCN)C(=O)N[C@@H](Cc1ccc(O)cc1)C(=O)N[C@@H](CCCNC(=N)N)C(=O)N[C@@H](CC(C)C)C(N)=O)[C@@H](C)O
B2: CXCR4 i4 loop compound 114 (peptide)
peptide: Palmitoyl-GAKFKTSAQHALTSVSRGSSLKILSK-NH2
SMILES: CCCCCCCCCCCCCCCC(=O)NCC(=O)N[C@@H](C)C(=O)N[C@@H](CCCCN)C(=O)N[C@@H](Cc1ccccc1)C(=O)N[C@@H](CCCCN)C(=O)N[C@H](C(=O)N[C@@H](CO)C(=O)N[C@@H](C)C(=O)N[C@@H](CCC(N)=O)C(=O)N[C@@H](Cc1c[nH]cn1)C(=O)N[C@@H](C)C(=O)N[C@@H](CC(C)C)C(=O)N[C@H](C(=O)N[C@@H](CO)C(=O)N[C@H](C(=O)N[C@@H](CO)C(=O)N[C@@H](CCCNC(=N)N)C(=O)NCC(=O)N[C@@H](CO)C(=O)N[C@@H](CO)C(=O)N[C@@H](CC(C)C)C(=O)N[C@@H](CCCCN)C(=O)N[C@H](C(=O)N[C@@H](CC(C)C)C(=O)N[C@@H](CO)C(=O)N[C@@H](CCCCN)C(N)=O)[C@@H](C)CC)C(C)C)[C@@H](C)O)[C@@H](C)O
B3: CXCR4 i4 loop compound 112 (peptide)
peptide: Palmitoyl-GAKFKTSAQHALTSVSRGSSLKILSGGK-NH2
SMILES: CCCCCCCCCCCCCCCC(=O)NCC(=O)N[C@@H](C)C(=O)N[C@@H](CCCCN)C(=O)N[C@@H](Cc1ccccc1)C(=O)N[C@@H](CCCCN)C(=O)N[C@H](C(=O)N[C@@H](CO)C(=O)N[C@@H](C)C(=O)N[C@@H](CCC(N)=O)C(=O)N[C@@H](Cc1c[nH]cn1)C(=O)N[C@@H](C)C(=O)N[C@@H](CC(C)C)C(=O)N[C@H](C(=O)N[C@@H](CO)C(=O)N[C@H](C(=O)N[C@@H](CO)C(=O)N[C@@H](CCCNC(=N)N)C(=O)NCC(=O)N[C@@H](CO)C(=O)N[C@@H](CO)C(=O)N[C@@H](CC(C)C)C(=O)N[C@@H](CCCCN)C(=O)N[C@H](C(=O)N[C@@H](CC(C)C)C(=O)N[C@@H](CO)C(=O)NCC(=O)NCC(=O)N[C@@H](CCCCN)C(N)=O)[C@@H](C)CC)C(C)C)[C@@H](C)O)[C@@H](C)O
B4: CXCR4 i4 loop compound 109 (peptide)
peptide: Palmitoyl-GAKFKTSAQHALTSVSRGSSLKILSKGKRGGHSSVST-NH2
SMILES: CCCCCCCCCCCCCCCC(=O)NCC(=O)N[C@@H](C)C(=O)N[C@@H](CCCCN)C(=O)N[C@@H](Cc1ccccc1)C(=O)N[C@@H](CCCCN)C(=O)N[C@H](C(=O)N[C@@H](CO)C(=O)N[C@@H](C)C(=O)N[C@@H](CCC(N)=O)C(=O)N[C@@H](Cc1c[nH]cn1)C(=O)N[C@@H](C)C(=O)N[C@@H](CC(C)C)C(=O)N[C@H](C(=O)N[C@@H](CO)C(=O)N[C@H](C(=O)N[C@@H](CO)C(=O)N[C@@H](CCCNC(=N)N)C(=O)NCC(=O)N[C@@H](CO)C(=O)N[C@@H](CO)C(=O)N[C@@H](CC(C)C)C(=O)N[C@@H](CCCCN)C(=O)N[C@H](C(=O)N[C@@H](CC(C)C)C(=O)N[C@@H](CO)C(=O)N[C@@H](CCCCN)C(=O)NCC(=O)N[C@@H](CCCCN)C(=O)N[C@@H](CCCNC(=N)N)C(=O)NCC(=O)NCC(=O)N[C@@H](Cc1c[nH]cn1)C(=O)N[C@@H](CO)C(=O)N[C@@H](CO)C(=O)N[C@H](C(=O)N[C@@H](CO)C(=O)N[C@H](C(N)=O)[C@@H](C)O)C(C)C)[C@@H](C)CC)C(C)C)[C@@H](C)O)[C@@H](C)O
B5: CXCR4 i4 loop compound 110 (peptide)
peptide: Palmitoyl-GAKFKTSAQHALTSVSRGSSLKILSKGKRGGSCFH-NH2
SMILES: CCCCCCCCCCCCCCCC(=O)NCC(=O)N[C@@H](C)C(=O)N[C@@H](CCCCN)C(=O)N[C@@H](Cc1ccccc1)C(=O)N[C@@H](CCCCN)C(=O)N[C@H](C(=O)N[C@@H](CO)C(=O)N[C@@H](C)C(=O)N[C@@H](CCC(N)=O)C(=O)N[C@@H](Cc1c[nH]cn1)C(=O)N[C@@H](C)C(=O)N[C@@H](CC(C)C)C(=O)N[C@H](C(=O)N[C@@H](CO)C(=O)N[C@H](C(=O)N[C@@H](CO)C(=O)N[C@@H](CCCNC(=N)N)C(=O)NCC(=O)N[C@@H](CO)C(=O)N[C@@H](CO)C(=O)N[C@@H](CC(C)C)C(=O)N[C@@H](CCCCN)C(=O)N[C@H](C(=O)N[C@@H](CC(C)C)C(=O)N[C@@H](CO)C(=O)N[C@@H](CCCCN)C(=O)NCC(=O)N[C@@H](CCCCN)C(=O)N[C@@H](CCCNC(=N)N)C(=O)NCC(=O)NCC(=O)N[C@@H](CO)C(=O)N[C@@H](CS)C(=O)N[C@@H](Cc1ccccc1)C(=O)N[C@@H](Cc1c[nH]cn1)C(N)=O)[C@@H](C)CC)C(C)C)[C@@H](C)O)[C@@H](C)O
B6: CXCR4 i4 loop compound 116 (peptide)
peptide: Palmitoyl-GAKFKTSAQHALTSVR-NH2
SMILES: CCCCCCCCCCCCCCCC(=O)NCC(=O)N[C@@H](C)C(=O)N[C@@H](CCCCN)C(=O)N[C@@H](Cc1ccccc1)C(=O)N[C@@H](CCCCN)C(=O)N[C@H](C(=O)N[C@@H](CO)C(=O)N[C@@H](C)C(=O)N[C@@H](CCC(N)=O)C(=O)N[C@@H](Cc1c[nH]cn1)C(=O)N[C@@H](C)C(=O)N[C@@H](CC(C)C)C(=O)N[C@H](C(=O)N[C@@H](CO)C(=O)N[C@H](C(=O)N[C@@H](CCCNC(=N)N)C(N)=O)C(C)C)[C@@H](C)O)[C@@H](C)O
B7: CXCR4 i4 loop compound 108 (peptide)
peptide: GAKFKTSAQHALTSVSRGSSLKILSKGKRG-NH2
modifications: not fully specified (N-terminus)
B8: CXCR4 i4 loop compound 107 (peptide)
peptide: GAKFKTSAQHALTSVSRGSSLKILSKGKRGGHSSVST-NH2
modifications: not fully specified (N-terminus); also: dual lipid, backbone lipid not given here
B9: CXCR4 i4 loop compound 115 (peptide)
peptide: Palmitoyl-GAKFKTSAQHALTSVSRGSSLK-NH2
SMILES: CCCCCCCCCCCCCCCC(=O)NCC(=O)N[C@@H](C)C(=O)N[C@@H](CCCCN)C(=O)N[C@@H](Cc1ccccc1)C(=O)N[C@@H](CCCCN)C(=O)N[C@H](C(=O)N[C@@H](CO)C(=O)N[C@@H](C)C(=O)N[C@@H](CCC(N)=O)C(=O)N[C@@H](Cc1c[nH]cn1)C(=O)N[C@@H](C)C(=O)N[C@@H](CC(C)C)C(=O)N[C@H](C(=O)N[C@@H](CO)C(=O)N[C@H](C(=O)N[C@@H](CO)C(=O)N[C@@H](CCCNC(=N)N)C(=O)NCC(=O)N[C@@H](CO)C(=O)N[C@@H](CO)C(=O)N[C@@H](CC(C)C)C(=O)N[C@@H](CCCCN)C(N)=O)C(C)C)[C@@H](C)O)[C@@H](C)O
B10: CXCR4 i2 loop compound 82 (peptide)
peptide: Palmitoyl-HATNSQRPRKLLAEK-NH2
SMILES: CCCCCCCCCCCCCCCC(=O)N[C@@H](Cc1c[nH]cn1)C(=O)N[C@@H](C)C(=O)N[C@H](C(=O)N[C@@H](CC(N)=O)C(=O)N[C@@H](CO)C(=O)N[C@@H](CCC(N)=O)C(=O)N[C@@H](CCCNC(=N)N)C(=O)N1CCC[C@H]1C(=O)N[C@@H](CCCNC(=N)N)C(=O)N[C@@H](CCCCN)C(=O)N[C@@H](CC(C)C)C(=O)N[C@@H](CC(C)C)C(=O)N[C@@H](C)C(=O)N[C@@H](CCC(=O)O)C(=O)N[C@@H](CCCCN)C(N)=O)[C@@H](C)O
B11: CXCR4 i2 loop compound 83 (peptide)
peptide: Palmitoyl-HATNSQRPRKLLAEKV-NH2
SMILES: CCCCCCCCCCCCCCCC(=O)N[C@@H](Cc1c[nH]cn1)C(=O)N[C@@H](C)C(=O)N[C@H](C(=O)N[C@@H](CC(N)=O)C(=O)N[C@@H](CO)C(=O)N[C@@H](CCC(N)=O)C(=O)N[C@@H](CCCNC(=N)N)C(=O)N1CCC[C@H]1C(=O)N[C@@H](CCCNC(=N)N)C(=O)N[C@@H](CCCCN)C(=O)N[C@@H](CC(C)C)C(=O)N[C@@H](CC(C)C)C(=O)N[C@@H](C)C(=O)N[C@@H](CCC(=O)O)C(=O)N[C@@H](CCCCN)C(=O)N[C@H](C(N)=O)C(C)C)[C@@H](C)O
B12: CXCR4 i2 loop compound 81 (peptide)
peptide: Palmitoyl-HATNSQRPRKLLAE-NH2
SMILES: CCCCCCCCCCCCCCCC(=O)N[C@@H](Cc1c[nH]cn1)C(=O)N[C@@H](C)C(=O)N[C@H](C(=O)N[C@@H](CC(N)=O)C(=O)N[C@@H](CO)C(=O)N[C@@H](CCC(N)=O)C(=O)N[C@@H](CCCNC(=N)N)C(=O)N1CCC[C@H]1C(=O)N[C@@H](CCCNC(=N)N)C(=O)N[C@@H](CCCCN)C(=O)N[C@@H](CC(C)C)C(=O)N[C@@H](CC(C)C)C(=O)N[C@@H](C)C(=O)N[C@@H](CCC(=O)O)C(N)=O)[C@@H](C)O

Biological target: T1, CXCR4 receptor (human, UniProt P61073 1-352)
T1 sequence (P61073 whole entry): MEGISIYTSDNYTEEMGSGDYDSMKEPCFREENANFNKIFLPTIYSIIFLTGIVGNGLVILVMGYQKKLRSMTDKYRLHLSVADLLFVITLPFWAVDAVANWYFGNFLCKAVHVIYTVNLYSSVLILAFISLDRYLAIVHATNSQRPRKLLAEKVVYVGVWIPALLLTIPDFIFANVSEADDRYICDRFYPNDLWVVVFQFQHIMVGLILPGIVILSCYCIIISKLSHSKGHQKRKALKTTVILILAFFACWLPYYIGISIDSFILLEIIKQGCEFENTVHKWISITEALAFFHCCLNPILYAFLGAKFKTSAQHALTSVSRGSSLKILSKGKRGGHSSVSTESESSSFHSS
Experiment: cell-based or functional assay

| Binder | AUC (% of), CHTX, SUP B-15, 1.0 uM [%] | Max (% of), CHTX, SUP B-15, 1.0 uM [%] | Peak Ratio, CHTX, CEM, 1.0 uM | Peak Ratio, CHTX, SUP B-15, 1.0 uM |
| --- | --- | --- | --- | --- |
| B1 | 32.4 | 49.6 | 0.2 | 0.2 |

Biological target: T1, CXCR4 receptor
Experiment: cell-based or functional assay
Remark: another data set of the same source

| Binder | AUC (% of Vehicle), CHTX, CEM, 1.0 uM | Max (% of Vehicle), CHTX, CEM, 1.0 uM | Peak Ratio, CHTX, CEM, 1.0 uM |
| --- | --- | --- | --- |
| B2 | 34.2 % of Vehicle | 63.1 % of Vehicle | 1 |
| B3 | 48.9 % of Vehicle | 54.7 % of Vehicle | 0.2 |
| B4 | 49.3 % of Vehicle | 49.8 % of Vehicle | 0.04 |
| B5 | 41 % of Vehicle | 42.1 % of Vehicle | 1 |
| B6 | 65.3 % of Vehicle | 80.5 % of Vehicle | 1 |
| B7 | 89.5 % of Vehicle | 83.9 % of Vehicle | 5 |
| B8 | 57.3 % of Vehicle | 49.5 % of Vehicle | 5 |
| B9 | 77.5 % of Vehicle | 92.1 % of Vehicle | 1 |

Biological target: T1, CXCR4 receptor
Experiment: cell-based or functional assay
Remark: another data set of the same source

| Binder | IC50 (nM), calcium flux, CCRF-CEM [nM] |
| --- | --- |
| B1 | 98 |

Biological target: T1, CXCR4 receptor
Experiment: cell-based or functional assay
Remark: another data set of the same source

| Binder | AUC (% of vehicle), chemotaxis, SUPB-15, 1.0 uM | Max (% of vehicle), chemotaxis, SUPB-15, 1.0 uM | Peak Ratio, chemotaxis, SUPB-15, 1.0 uM |
| --- | --- | --- | --- |
| B10 | 125 % of vehicle | 126 % of vehicle | 0.2 |
| B11 | 126 % of vehicle | 110 % of vehicle | 1 |
| B12 | 79.8 % of vehicle | 76.5 % of vehicle | 0.2 |
